Laboratory results reported in article PMC12607895 (2025).

B1: HAdV-C5 fiber knob (domain or fragment)
chain: TGAITVGNKNNDKLTLWTTPAPSPNCRLNAEKDAKLTLVLTKCGSQILATVSVLAVKGSLAPISGTVQSAHLIIRFDENGVLLNNSFLDPEYWNFRNGDLTEGTAYTNAVGFMPNLSAYPKSHGKTAKSNIVSQVYLNGDKTKPVTLTITLNGTQETGDTTPSAYSMSFSWDWSGHNYINEIFATSSYTFSYIAQE
modifications: trimer; limits by convention of the Ad5 knob structure 1KNB Source, isoform and limits not given; soluble extracellular domain assumed; N/O-glycosylated; amine-coupled to CM5 chip
B2: HAdV-D56 hexon (natural protein)
chain: ATPSMMPQWAYMHIAGQDASEYLSPGLVQFARATDTYFSLGNKFRNPTVAPTHDVTTDRSQRLTLRFVPVDREDTTYSYKARFTLAVGDNRVLDMASTYFDIRGVLDRGPSFKPYSGTAYNSLAPKGAPNSSQWEQKKANAGEQKETHTYGVAPMGGENITISGLQIGTDTTNGKQDPIYANKLYQPEPQVGEENWQETEAFYGGRALKKETKMKPCYGSFARPTNEKGGQAKLRDPEKSQEDFDIDLAFFDTPGGTLTGGGTEYKADIVMCTENVNLETPDTHVVYKPGKDDDSSEINLVQQSMPNRPNYIGFRDNFVGLMYYNSTGNMGVLAGQASQLNAVVDLQDRNTELSYQLLLDSLGDRTRYFSMWNSAVDSYDPDVRIIENHGVEDELPNYCFPLDGSGTNAAYEGVKVKNGQDGDQESEWEKDTNVADRNQICKGNIYAMEINLQANLWKSFLYSNVALYLPDSYKYTPANVTLPTNTNTYEYMNGRVVAPSLVDAYINIGARWSLDPMDNVNPFNHHRNAGLRYRSMLLGNGRYVPFHIQVPQKFFAIKNLLLLPGSYTYEWNFRKDVNMILQSSLGNDLRVDGASVRFDSVNLYATFFPMAHNTASTLEAMLRNDTNDQSFNDYLSAANMLYPIPAKATNVPISIPSRNWAAFRGWSFTRLKTKETPSLGSGFDPYFVYSGSIPYLDGTFYLNHTFKKVSIMFDSSVSWPGNDRLLTPNEFEIKRSVDGEGYNVAQCNMTKDWFLVQMLSHYNIGYQGFHVPEGYKDRMYSFFRNFQPMSRQVVDEINYKDYKAVTLPFQHNNSGFTGYLAPTMRQGQPYPANFPYPLIGQTAVPSVTQKKFLCDRVMWRIPFSSNFMSMGALTDLGQNMLYANSAHALDMTFEVDPMDEPTLLYLLFEVFDVVRVHQPHRGVIEAVYLRTPFSAGNATT
modifications: Source, isoform and limits not given; soluble extracellular domain assumed; N/O-glycosylated; amine-coupled to CM5 chip
B3: HAdV-B11 fiber knob (domain or fragment)
chain: GLTFNSNNICIDDNINTLWTGVNPTEANCQIMNSSESNDCKLILTLVKTGALVTAFVYVIGVSNNFNMLTTHRNINFTAELFFDSTGNLLTRLSSLKTPLNHKSGQNMATGAITNAKGFMPSTTAYPFNDNSREKENYIYGTCYYTASDRTAFPIDISVMLNRRAINDETSYCIRITWSWNTGDAPEVQTSATTLVTSPFTFYYIREDD
modifications: trimer; knob limits by convention (last shaft residues to C-terminus) Source, isoform and limits not given; soluble extracellular domain assumed; N/O-glycosylated; amine-coupled to CM5 chip
B4: HAdV-D26 hexon (natural protein)
chain: ATPSMMPQWAYMHIAGQDASEYLSPGLVQFARATDTYFSLGNKFRNPTVAPTHDVTTDRSQRLTLRFVPVDREDTTYSYKARFTLAVGDNRVLDMASTYFDIRGVLDRGPSFKPYSGTAYNSLAPKGAPNPSQWETKEKQGTTGGVQQEKDVTKTFGVAATGGINITNQGLLLGTDETAENGKKDIYADKTFQPEPQVGEENWQENEAFYGGRALKKDTKMKPCYGSFARPTNEKGGQAKFKPVNEGEQPKDLDIDFAYFDVPGGSPPAGGSGEEYKADIILYTENVNLETPDTHVVYKPGTSDNSSEINLVQQSMPNRPNYIGFRDNFVGLMYYNSTGNMGVLAGQASQLNAVVDLQDRNTELSYQLLLDSLGDRTRYFSMWNSAVDSYDPDVRIIENHGVEDELPNYCFPLNGTGTNSTYQGVKITNGNDGAEESEWEKDDAISRQNQICKGNVYAMEINLQANLWKSFLYSNVALYLPDSYKYTPANVKLPANTNTYEYMNGRVVAPSLVDAYINIGARWSLDPMDNVNPFNHHRNAGLRYRSMLLGNGRYVPFHIQVPQKFFAIKNLLLLPGSYTYEWNFRKDVNMILQSSLGNDLRVDGASVRFDSVNLYATFFPMAHNTASTLEAMLRNDTNDQSFNDYLSAANMLYPIPAKATNVPISIPSRNWAAFRGWSFTRLKTKETPSLGSGFDPYFVYSGSIPYLDGTFYLNHTFKKVSIMFDSSVSWPGNDRLLTPNEFEIKRSVDGEGYNVAQCNMTKDWFLVQMLSHYNIGYQGFHVPEGYKDRMYSFFRNFQPMSRQVVDEINYKDYKAVTLPFQHNNSGFTGYLAPTMRQGQPYPANFPYPLIGQTAVPSVTQKKFLCDRVMWRIPFSSNFMSMGALTDLGQNMLYANSAHALDMTFEVDPMDEPTLLYLLFEVFDVVRVHQPHRGVIEAVYLRTPFSAGNATT
modifications: Source, isoform and limits not given; soluble extracellular domain assumed; N/O-glycosylated; amine-coupled to CM5 chip
B5: HAdV-D37 fiber knob (domain or fragment)
chain: WNPKYDTRTLWTTPDTSPNCTIAQDKDSKLTLVLTKCGSQILANVSLIVVAGKYHIINNKTNPKIKSFTIKLLFNKNGVLLDNSNLGKAYWNFRSGNSNVSTAYEKAIGFMPNLVAYPKPSNSKKYARDIVYGTIYLGGKPDQPAVIKTTFNQETGCEYSITFNFSWSKTYENVEFETTSFTFSYIAQE
modifications: Source, isoform and limits not given; soluble extracellular domain assumed; N/O-glycosylated; amine-coupled to CM5 chip
B6: CD46 (receptor)
chain: CEEPPTFEAMELIGKPKPYYEIGERVDYKCKKGYFYIPPLATHTICDRNHTWLPVSDDACYRETCPYIRDPLNGQAVPANGTYEFGYQMHFICNEGYYLIGEEILYCELKGSVAIWSGKPPICEKVLCTPPPKIKNGKHTFSEVEVFEYLDAVTYSCDPAPGPDPFSLIGESTIYCGDNSVWSRAAPECKVVKCRFPVVENGKQISGFGKKFYYKATVMFECDKGFYLDGSDTIVCDSNSTWDPPVPKCLKVLPPSSTKPPALSHSVSTSSTTKSPASSASGPRPTYKPPVSNYPGYPKPEEGILDSLDVWVIAVIVIAIVVGVAVICVVPYRYLQRRKKKGTYLTDETHREVKFTSL
B7: CD46 (receptor)
chain: CEEPPTFEAMELIGKPKPYYEIGERVDYKCKKGYFYIPPLATHTICDRNHTWLPVSDDACYRETCPYIRDPLNGQAVPANGTYEFGYQMHFICNEGYYLIGEEILYCELKGSVAIWSGKPPICEKVLCTPPPKIKNGKHTFSEVEVFEYLDAVTYSCDPAPGPDPFSLIGESTIYCGDNSVWSRAAPECKVVKCRFPVVENGKQISGFGKKFYYKATVMFECDKGFYLDGSDTIVCDSNSTWDPPVPKCLKVLPPSSTKPPALSHSVSTSSTTKSPASSASGPRPTYKPPVSNYPGYPKPEEGILDSLD

What was measured:
Test in all cases: SPR
[1] = molecular target: B7
[2] = molecular target: HAdV-B11 hexon (human adenovirus B11 (HAdV-B11))
[3] = molecular target: HAdV-D113 fiber knob (human adenovirus D113 (HAdV-D113))
[4] = molecular target: HAdV-D113 hexon (human adenovirus D113 (HAdV-D113))
[5] = molecular target: HAdV-D37 hexon (human adenovirus D37 (HAdV-D37))
[6] = molecular target: HAdV-D56 fiber knob (human adenovirus D56 (HAdV-D56))

B1 showed a Kd [1] of 130 nM.

Work on B2 yielded a Kd [1] of 6730 nM.

For B3, the Kd [1] was 1.14 nM.

B4 gave a Kd [1] of 4240 nM.

B5 showed a Kd [1] of 2700 nM.

B6 was tested, and the Kd [2] was 210 nM, the Kd [3] was 130 nM and the Kd [4] was 4190 nM.

B7 was tested, and the Kd [5] was 3090 nM and the Kd [6] was 150 nM.
